Here are results for one substance from patent US20220040290A1.

For the assay, the target named is stabilized CH505 TF ch.SOSIP trimer (E64K/A316W) (HIV-1). Nature of the assay: method not stated.

The term Kd denotes a measure of binding affinity in units of concentration. Low readings indicate tighter binding, high ones weaker binding. On to “unmutated common ancestor (UCA) of the CH103 B cell lineage (antibody)”, for which the Kd is 171 nM.
